The supplement of paper PMC12042874
± gives the uncertainty stated by the source.

Assay: amyloid nucleation score (Sup35N fusion, yeast selection) (log enrichment); library NNK3; higher = more nucleation; inactive = no reads after selection
Method in brief: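 Three technical output replicates were used for random libraries. Psi-negative yeast expressing peptides of 20 random codons fused to Sup35N were induced with 100 μM copper sulfate for 24 hours and grown 7 days at 30°C on medium lacking adenine and uracil, and input and output plasmid inserts were Illumina-sequenced, excluding sequences with under 100 input reads. The nucleation score is the DiMSum log enrichment of output over input reads, centred on the mode score of non-aggregating sequences.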
In the case of RLSHTMCRVLCHWVMSYSVS, the amyloid nucleation score is reported as “inactive”. With RLTACASYIGINGRSRN the amyloid nucleation score was “inactive”. With RLTRVVIMQRFIGEVRLSAL the amyloid nucleation score was “inactive”. In the case of RLVFNLGGYFLKWCIDCFIR, the amyloid nucleation score is reported as “inactive”. In the case of RLVLRDPTSTVIVRVPLGFV, the amyloid nucleation score is reported as -0.547 ± 1.9. For RMAIISSRIWFGFLAMQFVF, the amyloid nucleation score was “inactive”. For RMDADI, the amyloid nucleation score was “inactive”. With RMDWWYSGCLFMRYPALTAL the amyloid nucleation score was “inactive”. With RMFKFGTCYKSVGPTKRAEC the amyloid nucleation score was “inactive”. In the case of RMHDSCFLYGISEDRDSLGN, the amyloid nucleation score is reported as “inactive”. For RMINVSVR, the amyloid nucleation score was “inactive”. For RMKFGADIAVVHVCPMEFSG, the amyloid nucleation score was “inactive”. For RMPRQGLWMRVF, the amyloid nucleation score was “inactive”. With RMRSWMGCGRHCLWRHLEEL the amyloid nucleation score was “inactive”. In the case of RMRYFDVYIWSDMRNEPGGL, the amyloid nucleation score is reported as “inactive”. For RMTMRRSSWQVEGITSLRIL, the amyloid nucleation score was “inactive”. With RMYACSWGKSDLSCLMSFGK the amyloid nucleation score was “inactive”. With RMYRGWLVPDAARSKGCRVM the amyloid nucleation score was “inactive”. With RNCLIYGHNDILGISRLSDF the amyloid nucleation score was “inactive”. With RNEWCFSKPILEYHCRMDVF the amyloid nucleation score was “inactive”. In the case of RNFARCRFNPPMTHHSFFNT, the amyloid nucleation score is reported as “inactive”. For RNFMSFRWPVLKLQRRVP, the amyloid nucleation score was “inactive”. For RNIYM, the amyloid nucleation score was “inactive”. In the case of RNLSLDLT, the amyloid nucleation score is reported as “inactive”. For RNMNLLSMHIGLISLFSGEL, the amyloid nucleation score was 1.81 ± 0.056. With RNNVMYVGYEGI the amyloid nucleation score was “inactive”. For RNRLN, the amyloid nucleation score was “inactive”. Substance RNTGKAVHFCNRVYDSSMSM has an amyloid nucleation score of -0.1 ± 0.6. In the case of RNWCSLNNLFYPWV, the amyloid nucleation score is reported as 1.78 ± 0.12. For RNYFMVLGRKYVFLFFWMMM, the amyloid nucleation score was “inactive”. For RPAVLGPAFRYSSLAP, the amyloid nucleation score was “inactive”. In the case of RPFGLAVTRWAPSFAGSRTS, the amyloid nucleation score is reported as “inactive”. For RPFSNAGYAFNHGFFV, the amyloid nucleation score was “inactive”. For RPMRDCIGHSQS, the amyloid nucleation score was “inactive”. For RPRWFGPRSVVGMRASCTCW, the amyloid nucleation score was “inactive”. For RQFCSQLICSIMVYVCLCGI, the amyloid nucleation score was “inactive”. For RQGGVNRNSVSMHSHGYRDC, the amyloid nucleation score was “inactive”. In the case of RQSALRWFSNDNWGICKAHD, the amyloid nucleation score is reported as -0.06 ± 0.87. For RQVTLARWTISIC, the amyloid nucleation score was “inactive”. With RRAVVLSVRGWRSAVTSRFS the amyloid nucleation score was “inactive”. In the case of RRCSIFLVVDIAGQLQRFMS, the amyloid nucleation score is reported as “inactive”. For RRFTHRIEVRTSVAIS, the amyloid nucleation score was “inactive”. For RRGIWDSVKMEKFL, the amyloid nucleation score was “inactive”. For RRKHHVISQVPERPLSWLAT, the amyloid nucleation score was “inactive”. RRKKQFFFLFFSHRNLFFPV showed an amyloid nucleation score of 2.18 ± 0.097. In the case of RRKRYCISDLA, the amyloid nucleation score is reported as “inactive”. For RRKYW, the amyloid nucleation score was “inactive”. In the case of RRLLSKGVKIVRLISDEVYC, the amyloid nucleation score is reported as “inactive”. In the case of RRLQV, the amyloid nucleation score is reported as “inactive”. For RRLVMDTTRLACKRYWRFLN, the amyloid nucleation score was “inactive”. RRMNISRGSCVELWFRFQWP showed an amyloid nucleation score of 0.163 ± 0.43. In the case of RRNEFVLWYLGDTSWYVWFS, the amyloid nucleation score is reported as 0.268 ± 0.27. In the case of RRNWSCMQTLSLANVVRVSA, the amyloid nucleation score is reported as “inactive”. For RRRGNKAFHPLQ, the amyloid nucleation score was “inactive”. With RRSYTFRSVGKEWNIAYWYI the amyloid nucleation score was “inactive”. With RRTMSSLFFKFDLH the amyloid nucleation score was “inactive”. With RRYPRTLYERVSCVS the amyloid nucleation score was “inactive”. For RRYVSSDFFLSAWWTVS, the amyloid nucleation score was “inactive”. In the case of RSAERRAQNSNFKLVDLGRN, the amyloid nucleation score is reported as “inactive”. With RSAKAYLTLWCRMYNPRIYM the amyloid nucleation score was -0.345 ± 1.3. RSARQHFPRNRGGNHSSDRV gave an amyloid nucleation score of 0.204 ± 0.43. In the case of RSFRSKPKYLLTSDTCWSLT, the amyloid nucleation score is reported as “inactive”. For RSGWS, the amyloid nucleation score was “inactive”. In the case of RSHPKCHSSLLHSWK, the amyloid nucleation score is reported as “inactive”. Substance RSIDGKSYNLAYLLGGLRNS has an amyloid nucleation score of 2.56 ± 0.065. With RSKRSLCRGLPDMYAWKWSR the amyloid nucleation score was “inactive”. In the case of RSMSSGAICSMSY, the amyloid nucleation score is reported as “inactive”. With RSMVGWACYLSWRFA the amyloid nucleation score was “inactive”. For RSNLIILSAHYRLYMDLRCA, the amyloid nucleation score was “inactive”. Substance RSQALFLNWTCDCGGYINQI has an amyloid nucleation score of 1.01 ± 0.21. With RSQNF the amyloid nucleation score was “inactive”. For RSRKKRCFLKFILKNFVWSV, the amyloid nucleation score was “inactive”. With RSRVSQFICRPGEVVNIAKC the amyloid nucleation score was “inactive”. In the case of RSTRIGLIYYMGMSATCTWG, the amyloid nucleation score is reported as “inactive”. With RSTSSENYFYWFKS the amyloid nucleation score was “inactive”. For RSTSVWRFLWMLHVFSKLLH, the amyloid nucleation score was “inactive”. With RSTWMAIWKERYMQTGFL the amyloid nucleation score was “inactive”. RSVRFFVKMINFFASY gave an amyloid nucleation score of 1.04 ± 0.15. For RSYLHCSTK, the amyloid nucleation score was “inactive”. In the case of RSYRI, the amyloid nucleation score is reported as “inactive”. With RTFMYMWRSEIF the amyloid nucleation score was “inactive”. With RTIQFPS the amyloid nucleation score was “inactive”. For RTLRRLTGNSILFRYWSNKG, the amyloid nucleation score was “inactive”. RTLTLLYTFF gave an amyloid nucleation score of 2.56 ± 0.052. Work on RTRSVLQIWLSFMMLCQACW yielded an amyloid nucleation score of -0.534 ± 1.5. For RTRTCRYFLIVYSVVCLMSI, the amyloid nucleation score was “inactive”. In the case of RTSEPKTAHIMNEAIRRC, the amyloid nucleation score is reported as “inactive”. With RTSLYICINKRTLSHRLFPC the amyloid nucleation score was “inactive”. In the case of RTVDSH, the amyloid nucleation score is reported as “inactive”. With RTWNVESFREFGCFKINLGP the amyloid nucleation score was “inactive”. In the case of RVAQTAVRVSWALDRFYLWD, the amyloid nucleation score is reported as “inactive”. Substance RVERICDNVSSC has an amyloid nucleation score of -0.577 ± 1. In the case of RVFNIEYMLECAFFRTIRD, the amyloid nucleation score is reported as “inactive”. In the case of RVKRWK, the amyloid nucleation score is reported as -0.095 ± 0.85. RVLVHYEVGFSENSRWGSVD showed an amyloid nucleation score of 0.481 ± 0.32. In the case of RVQIKVDGVSVHTDFSDWRS, the amyloid nucleation score is reported as 1.8 ± 0.086. RVQWALLSIKGHCS gave an amyloid nucleation score of 0.645 ± 0.24. In the case of RVRCDWCFGRGVCMTAIRQD, the amyloid nucleation score is reported as -0.147 ± 1.1. In the case of RVRDCSHRLLDIFVYLCGNT, the amyloid nucleation score is reported as “inactive”. In the case of RVRRLT, the amyloid nucleation score is reported as “inactive”. With RVWVMV the amyloid nucleation score was “inactive”. For RWELGIQALVR, the amyloid nucleation score was “inactive”. With RWIFIT the amyloid nucleation score was “inactive”. RWKLFWIHDR gave an amyloid nucleation score of 1.16 ± 0.14. For RWLFRSWPGRRMA, the amyloid nucleation score was “inactive”. In the case of RWLTVKPSRIRLWGCSWGLR, the amyloid nucleation score is reported as “inactive”. For RWRIEEPTI, the amyloid nucleation score was “inactive”. In the case of RWSILDGHHNVVLSVPSKS, the amyloid nucleation score is reported as “inactive”. For RWSNYMFDRQLY, the amyloid nucleation score was -1.2 ± 1.8. In the case of RWVNWLLYDKV, the amyloid nucleation score is reported as “inactive”. In the case of RYCGYHGVRFCSVCRFNMSL, the amyloid nucleation score is reported as “inactive”. For RYDMRVVSRNQLKYWTMGRE, the amyloid nucleation score was -0.646 ± 1.1. In the case of RYFNGPYLGRTVFEFT, the amyloid nucleation score is reported as “inactive”. In the case of RYFTLISYVVVVEVSLEKPW, the amyloid nucleation score is reported as “inactive”. For RYLITVAIPLSIGVLSTV, the amyloid nucleation score was “inactive”. In the case of RYLLPQIPLLYKWKLLILHG, the amyloid nucleation score is reported as “inactive”. With RYLYTRNLDMTRTL the amyloid nucleation score was “inactive”. With RYNRA the amyloid nucleation score was “inactive”. In the case of RYPSDSIGFISLDTGGCGVR, the amyloid nucleation score is reported as “inactive”. Work on RYSVYGLNICFL yielded an amyloid nucleation score of 2.45 ± 0.083. For RYTTY, the amyloid nucleation score was “inactive”. For RYVEWYLR, the amyloid nucleation score was “inactive”. With RYYCMYSSGEIRCSVSWGVW the amyloid nucleation score was “inactive”. In the case of SAACPWNWLDGASPPLRATA, the amyloid nucleation score is reported as “inactive”. In the case of SACSVIFTEYINVSLLLSST, the amyloid nucleation score is reported as 0.251 ± 0.42. With SADQSCYSPHFGGQRDRRWL the amyloid nucleation score was “inactive”. For SAEVAYGSFVYAGSWCRSVR, the amyloid nucleation score was “inactive”. With SALEVFLWNKYLFVDVTLLL the amyloid nucleation score was “inactive”. With SALPVTSCFFTTMCGTVIID the amyloid nucleation score was “inactive”. In the case of SAQNYTL, the amyloid nucleation score is reported as “inactive”. For SAVKWC, the amyloid nucleation score was “inactive”. In the case of SAWVVFVVFFVSFDPDILFY, the amyloid nucleation score is reported as “inactive”. SCDLELSNLELRVWRDTVRK gave an amyloid nucleation score of 1.8 ± 0.069. In the case of SCDRVFNLDVNRWKLMRKTC, the amyloid nucleation score is reported as “inactive”. With SCHSSSGGWEVSGNYRRGKL the amyloid nucleation score was “inactive”. With SCISKWST the amyloid nucleation score was “inactive”. In the case of SCRFRVLRVFLGQTMYSSSI, the amyloid nucleation score is reported as “inactive”. For SCVAVSI, the amyloid nucleation score was “inactive”. SCVPWICWNCQVPGL showed an amyloid nucleation score of 0.881 ± 0.18. For SCVRVTSLGVNNTRFFDRSW, the amyloid nucleation score was “inactive”. For SCVTHLPTVT, the amyloid nucleation score was “inactive”. For SDCKMISHFGEVINILSYKI, the amyloid nucleation score was “inactive”. With SDDDSYLWSSLFQA the amyloid nucleation score was “inactive”. In the case of SDFAIWKDFDG, the amyloid nucleation score is reported as 1.21 ± 0.1. For SDFEAFSFGDNMVFLIEMEG, the amyloid nucleation score was “inactive”. For SDFHCTQKRNMVWEEIA, the amyloid nucleation score was “inactive”. In the case of SDFRTRTNIQYLQYKNNSSP, the amyloid nucleation score is reported as “inactive”. In the case of SDGFLSADYRFFMMLRYRLE, the amyloid nucleation score is reported as “inactive”. In the case of SDHLQ, the amyloid nucleation score is reported as “inactive”. With SDIVCVKLEYT the amyloid nucleation score was “inactive”. For SDKFMLRHHLCWDARSCFQV, the amyloid nucleation score was 0.348 ± 0.75. In the case of SDKLSFSRDPSVMRVGQVQR, the amyloid nucleation score is reported as “inactive”. For SDKRPWGFRNRDIYVIVGHR, the amyloid nucleation score was “inactive”. In the case of SDLCRSMSNQFSELSSNDFV, the amyloid nucleation score is reported as “inactive”. With SDLMRKKMDGMDRNEGCPIR the amyloid nucleation score was “inactive”. With SDRARRC the amyloid nucleation score was 0.163 ± 0.98. For SDYLRMVVTYPQTLLYQGTK, the amyloid nucleation score was “inactive”. With SDYSLYWFK the amyloid nucleation score was “inactive”. For SEIIHLGFYYDP, the amyloid nucleation score was “inactive”. With SELETQDIYMRSQPFTEFSP the amyloid nucleation score was “inactive”. With SERYEEMTFSDGYMFSRDDL the amyloid nucleation score was “inactive”.
